Assay results as given in patent WO2005003174A1 (dated 2005).

Target: T1, fusion protein consisting of soluble CD64 linked to the Fc portion of human IgM (human, UniProt P12314 16-292; P01871 106-453, limits assumed)
T1 construct: domain: soluble CD64;domain: Fc portion; Used as a supernatant and detected with alkaline phosphatase labelled goat anti-human IgM; also called soluble CD64-IgM fusion protein
Assay: bispecific ELISA: PsaA coated, detection with soluble CD64-IgM fusion and anti-human IgM

T1 sequence (P12314 other isoform, or with tags, fused parts or gaps limits assumed): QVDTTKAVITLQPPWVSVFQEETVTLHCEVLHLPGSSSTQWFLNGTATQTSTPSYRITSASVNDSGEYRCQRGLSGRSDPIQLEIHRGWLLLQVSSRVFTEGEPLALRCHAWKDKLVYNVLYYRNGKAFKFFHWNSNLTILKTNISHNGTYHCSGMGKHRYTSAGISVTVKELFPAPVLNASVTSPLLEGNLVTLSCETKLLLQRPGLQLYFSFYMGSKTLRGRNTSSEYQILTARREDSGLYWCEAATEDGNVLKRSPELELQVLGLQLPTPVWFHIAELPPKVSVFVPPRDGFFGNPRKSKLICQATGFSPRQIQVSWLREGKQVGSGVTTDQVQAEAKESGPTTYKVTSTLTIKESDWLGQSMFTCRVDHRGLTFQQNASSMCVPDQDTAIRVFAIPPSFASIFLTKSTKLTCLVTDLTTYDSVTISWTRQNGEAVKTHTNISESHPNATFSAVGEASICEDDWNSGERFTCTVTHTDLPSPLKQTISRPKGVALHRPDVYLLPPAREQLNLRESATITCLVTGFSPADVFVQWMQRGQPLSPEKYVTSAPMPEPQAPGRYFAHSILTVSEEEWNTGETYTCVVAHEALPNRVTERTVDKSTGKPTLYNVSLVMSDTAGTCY

B1: F(ab')2 fragment of the anti-PsaA Ab 5-9A7 (antibody, V domains shown)
VH: EVQLVESGGGLVQPGGSLRLSCAASGFTFSSFWMSWVRQAPGKGLEWVANIKQDGSEKFYVDSVKGRFTISRDNAKNSLYLQMNSLRAEDTAVYYCARDRITMVRPYYYFYNGLDVWGQGTTVTVSS
VL: EIVLTQSPATLSLSPGERATLSCRASQSVSSYLAWYQQKPGQAPRLLIYDASNRATGIPARFSGSGSGTDFTLTISSLEPEDFAVYYCQQRSNWPPFTFGPGTKVDIK
notes: F(ab')2 fragment made by pepsin digestion of the human antibody 5-9A7; also called anti-PsaA F(ab')2
  binding result: no binding
